Where “and” joins values, the source holds several entries; their conditions need not be identical. Identical values can stand only once.
What was measured:
[1] = biological target: Mycobacterium tuberculosis RNA polymerase core (M. tuberculosis) (UniProt P9WGZ1); assay: SEC
[2] = biological target: Mycobacterium tuberculosis RNA polymerase holoenzyme with the σ^B subunit (M. tuberculosis) (UniProt P9WGZ1); assay: SEC
[3] = biological target: Mycobacterium tuberculosis RNA polymerase holoenzyme with the σ^B subunit (M. tuberculosis) (UniProt P9WGZ1); assay: cryo-EM structure
[4] = biological target: Mycobacterium tuberculosis RNA polymerase holoenzyme with the σ^B subunit (M. tuberculosis) (UniProt P9WGZ1); assay: negative stain EM

Substance | stoichiometry N [1] | stoichiometry N [2] | percent of oligomer particles that are octamers [3] | percent of oligomer particles that are tetramers [3] | stoichiometry N [3] | RNAP concentration from which octamers form [4] | percent of molecules in oligomers after 24 h at 4 °C [4] | stoichiometry N [4]
Mycobacterium tuberculosis RNA polymerase core (from UniProt P9WGZ1;P9WGY9;P9WGY7;P9WGY5) (complex) | 2 | – | – | – | – | – | – | –
Mycobacterium tuberculosis RNA polymerase holoenzyme with the σ^B subunit, P9WGZ1;P9WGY9;P9WGY7;P9WGY5;P9WGI5 | – | 8 | 80% | 20% | 8 and 4 | 0.1 µM | 86% | 8

Reference: PMC9886945
